Measurements reported in the RNAGym collection of RNA variant scans (doi:10.1073/pnas.2313332121).

B1: TPR t1 (parent)
chain: GACCAAUCUGCCCUCAGAGCUCGAGAACAUCUUCGGAUGCAGAGGAGGCAGGCUUCGGUGGCGCGAUAGCGCCAACGUCCUCAACCUCCAAUGCAUCCCACCACAUGAUGAUGCCUGAAGAGCCUUGGUUUUUUG

Variants of: B1
Test: polymerase ribozyme fitness, log enrichment relative to wild type (log ratio); higher = more active; in vitro selection for triplet polymerase activity
Outline: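 Genotype fitness is the logarithm of its enrichment divided by wild-type enrichment, using inverse-variance-weighted averages of replicates. That logarithm is base 2. Enrichment was measured by Illumina sequencing of input and output libraries from one triplicate in vitro selection round, with frozen incubation at −7 °C, on PCR-built, transcribed mutant libraries of each subunit of a heterodimeric triplet polymerase ribozyme, retaining genotypes with ≥10 input reads and ≥1 read per output.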

| Variant | polymerase ribozyme fitness (log ratio) |
| --- | --- |
| C101A G127C | -1.82 |
| A18U C114G | -4.17 |
| C72G U129G | -1.34 |
| U59G U96G A111C U131A U133A | -1.54 |
| A26C U92A | -5.95 |
| A46U G63U U78A A90U | -3.56 |
| G60A C88U G122A | -2.19 |
| C40G A46U C53U C62A | -3.89 |
| C22G G47C C104A | -4.76 |
| A24G C56G C72U C86U U92A U129C | -6.8 |
| C4A C72U U81A G117U G122A U132A | -6.42 |
| G45C G93U | -3.67 |
| C76A C115U | -2.9 |
| C28U C73G G93C | -3.34 |
| G17U A18U G35C C72G G77U A103U U112G | -6.95 |
| U96A A121G | 0.527 |
| C101A C114U | -2.99 |
| C15U A18G U59A G93C C104U | -5.54 |
| C53A C70U C115A A118U | -1.34 |
| C11G A27G C85A U125A | -2.01 |
| A24G G71C G120U | -2.78 |

| Variant | polymerase ribozyme fitness (log ratio) |
| --- | --- |
| C56A G71U U78G A105G A119U G122A | -5.65 |
| A2C C11U C70G G120A | -3.19 |
| G61U C62A | -5.14 |
| G52U C99U U132C | -4.08 |
| A37C C115U U130A U132G | -1.99 |
| G10U C34A G44A C72A | -5.99 |
| G45C G51A U78A C123G | -2.51 |
| A50U C82U A119U | -2.14 |
| C12G C53U G93C | -0.482 |
| U9G G35U | -4.99 |
| C34G G44A | -6.88 |
| A6G G71A C101A | -3.04 |
| C3G C88G U112G | -2.52 |
| G69U C99U | -1.7 |
| G48C C53A C124U G128C | -3.02 |
| C22U A41C G60A C99U G110A U129G | -6.8 |
| G71A C89U U126C | -1.9 |
| G69U U133G | 0.15 |
| U9G C12A U14C G44C G63A G77A G93A | -2.85 |
| C13U A50G C70U C79U C86G G117A | -2.99 |
| C34A U87A A90G | -2.87 |

| Variant | polymerase ribozyme fitness (log ratio) |
| --- | --- |
| G42A U78A | -2.26 |
| G10U C49U | -0.491 |
| G35A G48C C56A C123G | -2.99 |
| C12U A18G A41U G47C U109G C124G | -2.39 |
| C13U U132C | 0.0693 |
| G69C C123G | 0.685 |
| C97A U131A | -3.97 |
| C62U C98G | -5.88 |
| C8G C80A A90U G128C U129G | -4.56 |
| A37U C56G C85U | -1.26 |
| G10C U32C G52A G69C U112A G128A | -4.78 |
| A18C C64U U130C | -2.08 |
| C49A C86G C101A A118U | -1.56 |
| U33A G36U G69U C99G | -5.44 |
| C8A G19U G44U C97U | -3.97 |
| G77C A95U | -0.809 |
| C15U G60A | -0.966 |
| G10U G48A G93A C114G | -5.11 |
| C49U A90G C124A | 1.48 |
| G63A C98U | -2.12 |
| C114U A118G | -2.12 |

| Variant | polymerase ribozyme fitness (log ratio) |
| --- | --- |
| G17A C20A C31G G36U A46C C124A | -7.12 |
| A6U G19C C82U C94A A111C | -4.5 |
| G44U G47U U55C | -2.82 |
| U78C A83U | -0.61 |
| A37C C40U C53U G63U C123G U133C | -0.381 |
| G61C A84C | -1.86 |
| A6U G69A C124A | -1.22 |
| A100U U106C | -0.792 |
| C8G C64U | 0.927 |
| A5U A46U G47C A50G C53U C86A C115G | -5.37 |
| C94G G110A | -2.23 |
| C56A C82A G128A | -2.53 |
| C22A G48U C56U | -4.88 |
| G63C A91U C114A A118G U132A | -4.5 |
| G45U C124G U133A | 0.519 |
| G61A C73U U78A | -0.265 |
| C12U C13U A43G G61A U130G | -2.17 |
| C20A G35U | -5.42 |
| C11G C20U A26C A27G G44U C114U | -6.01 |
| G60A C98G | -7.02 |
| C20U C53A G71A A91G | -5.09 |
